According to the PETadex activity labels:

Legend:
pNPB = assay: Proxy for plastic degradation [Residual activity]; details: pH 8
pNP-C6 = details: pH 8; 30 °C
PET [1] = assay: Proxy for plastic degradation [Weight/mass loss]
PCL = assay: Proxy for plastic degradation [Residual activity]; details: pH 8
PET [2] = assay: Proxy for plastic degradation [Released monomer concentration (HPLC/LC-MS) (MHET+TPA)]; details: pH 8
PET [3] = assay: Proxy for plastic degradation [adsorption equilibrium constant (K_A), utilising heterogeneous kinetic model]; details: pH 8
PET [4] = assay: Proxy for plastic degradation [MHET inhibitor binding constant (beta), utilising the kinetic inhibition model]; details: pH 8
PET [5] = assay: Proxy for plastic degradation [hydrolysis rate constant (k_h), utilising heterogeneous kinetic model] (µmol/(cm²·h)); details: pH 8
[6] = Proxy for plastic degradation [Weight/mass loss]; details: pH 8
p-NP-C4 = details: pH 8
[7] = Proxy for plastic degradation [HPLC-UV] (µmol); details: pH 7
PET [8] = assay: Proxy for plastic degradation [Absorbance (nm)]; details: pH 8.5
PBSA = assay: Proxy for plastic degradation [kcat/Km (catalytic efficiency)] (mM⁻¹s⁻¹); details: pH 8.2

B1: unnamed (protein)
chain: SNPYQRGPNPTRSALTADGPFSVATYTVSRLSVSGFGGGVIYYPTGTSLTFGGIAMSPGYTADASSLAWLGRRLASHGFVVLVINTNSRFDYPDSRASQLSAALNYLRTSSPSAVRARLDANRLAVAGHSMGGGGTLRIAEQNPSLKAAVPLTPWHTDKTFNTSVPVLIVGAEADTVAPVSQHAIPFYQNLPSTTPKVYVELDNASHFAPNSNNAAISVYTISWMKLWVDNDTRYRQFLCNVNDPALSDFRTNNRHCQHHHHHH
With B1 the “Proxy for plastic degradation” value (pNPB; 40 °C) was 100%, the “Proxy for plastic degradation” value (pNPB; 50 °C) was 100% and the “Proxy for plastic degradation” value (pNPB; 90 °C) was 0%. The “Proxy for plastic degradation” value (pNPB; 95 °C) was 0%.

B2: unnamed (protein)
chain: MKKIYAVALFFLATSFAPNIIFAQCGDVTIESLTNPGPYEVATLTEADGLRNGPDYQGATVYYPTNATPPFASIAIVPGFTALPSSVEEWGPFYASHGIVTIIIGTNSLFDFPEERAVALIDALETMRQENTRSSSPLENQLDVDKFAVSGWSMGGGGAQRAAVLDNTIKGVVALCPWLPNASLNHDSPVLIFSGENDPTAPPAQHADLHYAATPNTTNKLLFEIENGNHSVANTPNGGNGAVGKIALSWLKLYVDENDCYCPLLTESLLVDPPAASKVLSSFECELLSVPDNSFAISVYPNPTHDFVNINSTNPVHFEVYSALGQRLLSGELTQSEKQIDFSNFAKGLYYVRLGNETVKIVRN
In the case of B2, the Km (pNP-C6) is reported as 1370 µM, the kcat (pNP-C6) is reported as 19.1 s⁻¹ and the kcat/Km (pNP-C6) is reported as 13900 M⁻¹ s⁻¹.

B3: unnamed (protein)
chain: ANPYERGPNPTDALLEARSGPFSVSEENVSRLSASGFGGGTIYYPRENNTYGAVAISPGYTGTEASIAWLGERIASHGFVVITIDTITTLDQPDSRAEQLNAALNHMINRASSTVRSRIDSSRLAVMGHSMGGGGSLRLASQRPDLKAAIPLTPWHLNKNSSVTVPTLIIGADLDTIAPVATHAKPFYNSLPSSISKAYLELDGATHFAPNIPNKIIGKYSVAWLKRFVDNDTRYTQFLCPGPRDGLFGEVEEYRSTCPFY
With B3 the “Proxy for plastic degradation” value (PET [1]; pH 8) was 15.9%, the “Proxy for plastic degradation” value (PCL) was 36.5% and the “Proxy for plastic degradation” value (PET [2]) was 27 µM. The “Proxy for plastic degradation” value (PET [3]) was 0.338 mL/µg, the “Proxy for plastic degradation” value (PET [4]) was 0.738 L/mmol and the “Proxy for plastic degradation” value (PET [5]) was 0.094.

B4: unnamed (protein)
chain: MELALALSLIASVAAAPTATLANGDTITGLNAIINEAFLGIPFAEPPVGNLRFKDPVPYSGSLDGQKFTSYGPSCMQQNPEGTYEENLPKAALDLVMQSKVFEAVSPSSEDCLTINVVRPPGTKAGANLPVMLWIFGGGFEVGGTSTFPPAQMITKSIAMGKPIIHVSVNYRVSSWGFLAGDEIKAEGSANAGLKDQRLGMQWVADNIAAFGGDPTKVTIFGESAGSMSVMCHILWNDGDNTYKGKPLFRAGIMQSGAMVPSDAVDGIYGNEIFDLLASNAGCGSASDKLACLRGVSSDTLEDATNNTPGFLAYSSLRLSYLPRPDGVNITDDMYALVREGKYANIPVIIGDQNDEGTFFGTSSLNVTTDAQAREYFKQSFVHASDAEIDTLMTAYPGDITQGSPFDTGILNALTPQFKRISAVLGDLGFTLARRYFLNHYTGGTKYSFLSKQLSGLPVLGTFHSNDIVFQDYLLGSGSLIYNNAFIAFATDLDPNTAGLLVKWPEYTSSSQSGNNLMMINALGLYTGKDNFRTAGYDALFSNPPSFFV
For B4, the “Proxy for plastic degradation” value [6] was 0.2 mg and the “Proxy for plastic degradation” value (PET [1]; pH 8) was 0 mg.

B5: unnamed (protein)
chain: MRKLYLFLFLTLISPISISIFHAQCTGATVESLTNPGPYTVATLSEADGVRNGPKYAGSTIYYPTNATPPYASIAIVPGFTAAPSSVQEWGPFYASHGIVAIIIGTNSLYDQPEARALALLDALETIKQENGRATSPLIGKLDVTKLAVSGWSMGGGGAQRAAVLDNTISAVVALCPYLTSPQLNHTVPVLIFSGQSDPTAPPSQHANVHYNTTPGTTNKLLFEVKNGNHSVANSPTGGGGAVGKLALSWLKIYLEKNDCYCSVLATAIVNSTTVSSKISQSYQCNNALGVVDSKTRFNLYPNPTKDFVQVNVREMASYQLSSSTGQIVLKGIVTSSKNQIDLSKLPAGVYYLQINGETIKVIKKQ
In the case of B5, the Km (pNP-C6) is reported as 300 µM, the kcat (pNP-C6) is reported as 8.9 s⁻¹ and the kcat/Km (pNP-C6) is reported as 29700 M⁻¹ s⁻¹.

B6: unnamed (protein)
chain: MDGVLWRVRTAALMAALLALAAWALVWASPSVEAQSNPYQRGPNPTRSALTADGPFSVATYTVSRLSVSGFGGGVIYYPTGTSLTFGGIAMSPGYTADASSLAWLGRRLASHGFVVLVINTNSRFDYPDSRASQLSAALNYLRTSSPSAVRARLDANRLAVAGHSMGGGGTLRIAEQNPSLKAAVPLTPWHTDKTFNTSVPVLIVGAEADTVAPVSQHAIPFYQNLPSTTPKVYVELDNASHFAPNSNNAAISVYTISWMKLWVDNDTRYRQFLCNVNDPALSDFRTNNRHCQ
In the case of B6, the “Proxy for plastic degradation” value [6] is reported as 9 mg and the “Proxy for plastic degradation” value (PET [1]; pH 8) is reported as 1.5 mg.

B7: unnamed (protein)
chain: MPPHAARPGPAQNRRGRAMAVITPRRERSSLLSRALRFTAAAATALVTAVSLAAPAHAANPYERGPNPTDALLEARSGPFSVSEERASRFGADGFGGGTIYYPRENNTYGAVAISPGYTGTQASVAWLGERIASHGFVVITIDTNTTLDQPDSRARQLNAALDYMINDASSAVRSRIDSSRLAVMGHSMGGGGTLRLASQRPDLKAAIPLTPWHLNKNWSSVRVPTLIIGADLDTIAPVLTHARPFYNSLPTSISKAYLELDGATHFAPNIPNKIIGKYSVAWLKRFVDNDTRYTQFLCPGPRDGLFGEVEEYRSTCPF
With B7 the Km (p-NP-C4; 60 °C) was 673 µM, the kcat (p-NP-C4; 60 °C) was 483 s⁻¹ and the kcat/Km (p-NP-C4; 60 °C) was 718000 M⁻¹ s⁻¹.

B8: unnamed (protein)
chain: ANPYERGPNPTDALLEARSGPFSVSEENVSRLSASGFGGGTIYYPRENNTYGAVAISPGYTATEASIAWLGERIASHGFVVITIDTITTLDQPDSRAEQLNAALNHMINRASSTVRSRIDSSRLAVMGHSMGGGGSLRLASQRPDLKAAIPLTPWHLNKNWSSVTVPTLIIGADLDTIAPVATHAKPFYNSLPSSISKAYLELDGATHAAPNIPNKIIGKYSVAWLKRFVDNDTRYTQFLCPGPRDGLFGEVEEYRSTCPFYPNSSSVDKLAAALE
For B8, the “Proxy for plastic degradation” value (PET [1]; pH 9, 6 h) was 20%.

B9: unnamed (protein)
chain: MEMLEEHRCFEGWQQRWRHDSSTLNCPMTFSIFLPPPRDHTPPPVLYWLSGLTCNDENFTTKAGAQRVAAELGIVLVMPDTSPRGEKVANDDGYDLGQGAGFYLNATQPPWATHYRMYDYLRDELPALVQSQFNVSDRCAISGHSMGGHGALIMALKNPGKYTSVSAFAPIVNPCSVPWGIKAFSSYLGEDKNAWLEWDSCALMYASNAQDAIPTLIDQGDNDQFLADQLQPAVLAEAARQKAWPMTLRIQPGYDHSYYFIASFIEDHLRFHAQYLLK
In the case of B9, the Km (p-NP-C4; 37 °C) is reported as 700 µM, the kcat (p-NP-C4; 37 °C) is reported as 0.36 s⁻¹ and the kcat/Km (p-NP-C4; 37 °C) is reported as 514 M⁻¹ s⁻¹.

B10: unnamed (protein)
chain: MANPYERGPNPTDALLEASSGPFSVSEENVSRLSASGFGGGTIYYPRENNTYGAVAISPGYTGTEASIAWLGGRIASHGFVVITIDTITTLDQPDSRAEQLNAALNHMINRASSTVRSRIDSSRLAVMGHSMGGGGTPRLASQRPDLKAAIPLTPWHLNKNRSSVTVPTLIIGADLDTIAPVATHAKPFYNSLPSSISKAYLELDGATHFAPNIPNKIIGKYSVAWLKRFVDNDTRYTQFLCPGPRDGLFGEVEEYCSTCPF
In the case of B10, the “Proxy for plastic degradation” value [7] is reported as 0.6.

B11: unnamed (protein)
chain: MARTMRSRVVAGAVACAMSIAPFAGTTAVMTLATTHAAMAATAPAAGYAATRYPIILVHGLSGTDKYAGVLEYWYGIQEDLQQNGATVYVANLSGFQSDDGPNGRGEQLLAYVKTVLAATGATKVNLVGHSQGGLSSRYVAAVAPDLVASVTTIGTPHRGSEFADFVQDVLAYDPTGLSSSVIAAFVNVFGILTSSSHNTNQDALAALQTLTTARAATYNQNYPSAGLGAPGSCQTGAPTETVGGNTHLLYSWAGTAIQPTLSVFGVTGATDTSTLPLVDPANVLDLSTLALFGTGTVMINRGSGQNDGLVSKCSALYGKVLSTSYKWNHLDEINQLLGVRGAYAEDPVAVIRTHANRLKLAGV
In the case of B11, the “Proxy for plastic degradation” value [6] is reported as 2.8 mg and the “Proxy for plastic degradation” value (PET [1]; pH 8) is reported as 0 mg.

B12: unnamed (protein)
chain: MLAVWDDTLAHPVRGRDRELATLTGLLDNTSGRRGTGMVVVGAPGTGKTTLLNALVEHAEGFQVLWAEGSAAESDVRFAGVEQLLRPLESLVSLLPDDRGRALRPVWGLPADDEGQVGSLAVPAAVSALLGLAARRQPVLCCVDSAHLLDSASLSALAFAARRAHHAGVVFVFAVDCTADTEVDTETSVWGELPRLRLGRLDDEAAHALLRDRLGASLPHDLADSLLDVGHGNPLALVELAESLTPEHLCGRAAPPSSPPPEGRLCRTLGHRLSALSEGAREVVALAGISEGLDEQLTCRVLPHHRSTLAEAVRSGLVVLDGDTVRTAADTVPSALLAALTPQDIVQAHHRMAEAAEAVGDRDRAVWHRAAIAMAPDPALVADLDDIAERARAAAAHATAAAASERAAALTSDTKERARRLVAAATDHWASGRPQRARTALRLAAPLSDSVLGARVSRLAGEIELRRGDPSVAATKLISTARQLASTHRTLAASALMLAGEASFVAGDNARYCLTAKDAALLCGPEEWPATRVVREHFTAMSATFRGEHSAAAAPLRSLVELGETTPDPTAKTLASQAAFTLGDAERSRDLALQAVVCARARGDESGVPWALVYAALSALLSGQLSAASTTALEGLQVARSLGQSNSAVDHVTVLAMLAALQGDEETALQRLQAANTELAERGLGRPSALATWAAACVDLAHDRPAEAFDRFRRMTVGRSRHCVPLRVMAVPHFVEAAVRCGEKEVARRSLVTFEHWANTTGGTARVALAHRCHALLAEQDGEAQERFTEAVRLHREADAPYDLAVTQLLYASHLRRSRRPKQARELLREAVQLFDDLGATHWVERASQELRACGHPGRGKPHLSRGLSPQQERIAQLVADGATNKEIATQLFISHRTVDHHLRNIFAKLDVRSRVQLAALFR
For B12, the “Proxy for plastic degradation” value (PET [8]) was 12.5 mM and the “Proxy for plastic degradation” value (PBSA) was 308.
